B1: MMP-1 (protein)
chain: FVLTEGNPRWEQTHLTYRIENYTPDLPRADVDHAIEKAFQLWSNVTPLTFTKVSEGQADIMISFVRGDHRDNSPFDGPGGNLAHAFQPGPGIGGDAHFDEDERWTNNFREYNLHRVAAHELGHSLGLSHSTDIGALMYPSYTFSGDVQLAQDDIDGIQAIYGRSQNPVQPIGPQTPKACDSKLTFDAITTIRGEVMFFKDRFYMRTNPFYPEVELNFISVFWPQLPNGLEAAYEFADRDEVRFFKGNKYWAVQGQNVLHGYPKDIYSSFGFPRTVKHIDAALSEENTGKTYFFVANKYWRYDEYKRSMDPGYPKMIAHDFPGIGHKVDAVFMKDGFFYFFHGTRQYKFDPKTKRILTLQKANSWFNCRKN
B2: MMP-2 (protein)
chain: YNFFPRKPKWDKNQITYRIIGYTPDLDPETVDDAFARAFQVWSDVTPLRFSRIHDGEADIMINFGRWEHGDGYPFDGKDGLLAHAFAPGTGVGGDSHFDDDELWTLGEGQVVRVKYGNADGEYCKFPFLFNGKEYNSCTDTGRSDGFLWCSTTYNFEKDGKYGFCPHEALFTMGGNAEGQPCKFPFRFQGTSYDSCTTEGRTDGYRWCGTTEDYDRDKKYGFCPETAMSTVGGNSEGAPCVFPFTFLGNKYESCTSAGRSDGKMWCATTANYDDDRKWGFCPDQGYSLFLVAAHEFGHAMGLEHSQDPGALMAPIYTYTKNFRLSQDDIKGIQELYGASPDIDLGTGPTPTLGPVTPEICKQDIVFDGIAQIRGEIFFFKDRFIWRTVTPRDKPMGPLLVATFWPELPEKIDAVYEAPQEEKAVFFAGNEYWIYSASTLERGYPKPLTSLGLPPDVQRVDAAFNWSKNKKTYIFAGDKFWRYNEVKKKMDPGFPKLIADAWNAIPDNLDAVVDLQGGGHSYFFKGAYYLKLENQSLKSVKFGSIKSDWLGC
B3: MMP-7 (protein)
chain: YSLFPNSPKWTSKVVTYRIVSYTRDLPHITVDRLVSKALNMWGKEIPLHFRKVVWGTADIMIGFARGAHGDSYPFDGPGNTLAHAFAPGTGLGGDAHFDEDERWTDGSSLGINFLYAATHELGHSLGMGHSSDPNAVMYPTYGNGDPQNFKLSQDDIKGIQKLYGKRSNSRKK

The first series addresses T1, APAGLIVPYN (SEQ ID NO: 5).
T1 chain: APAGLIVPYN
With B1, the initial rate of cleavage by recombinant protease was 0 µM/h.
Still for that read-out and setting: in the case of B2 it was 29.6 µM/h.
On the same count and under the same terms, in the case of B3 it was 2.4 µM/h.

In another series the target is T2, IVGRPRHQGV (SEQ ID NO: 7).
T2 chain: IVGRPRHQGV
On to B1, for which the initial rate of cleavage by recombinant protease stood at 0 µM/h.
Still for that read-out and setting: in the case of B2 it was 0 µM/h; in that of B3, 0 µM/h.

In another series the target is T3, PANLVAPDP (SEQ ID NO: 6).
T3 chain: PANLVAPDP
Take B1: the initial rate of cleavage by recombinant protease was determined as 2.7 µM/h.
On the same count and under the same terms, the figure for B2 is 31.2 µM/h; for B3 it is 2.5 µM/h.

A further series has as its target T4, PVSLRSGS (SEQ ID NO: 1).
T4 chain: PVSLRSGS
For the protein B1, the initial rate of cleavage by recombinant protease came out at 0 µM/h.
Still for that read-out and setting: in the case of B2 it was 1.9 µM/h; in that of B3, 0.2 µM/h.

For the next series, the target named is T5, RPLALWRS (SEQ ID NO: 3).
T5 chain: RPLALWRS
Turning to B1, the initial rate of cleavage by recombinant protease amounted to 0.1 µM/h.
On the same count and under the same terms, the figure for B2 is 1.1 µM/h; for B3 it is 0.2 µM/h.

A further series has as its target T6, RSKYLATA (SEQ ID NO: 8).
T6 chain: RSKYLATA
Take B1: the initial rate of cleavage by recombinant protease came out at 0 µM/h.
The same measure, in the same setting: the figure for B2 is 0 µM/h; for B3 it is 0 µM/h.

For a further series, the target named is T7, TQKPLGLS (SEQ ID NO: 4).
T7 chain: TQKPLGLS
As to B1, the initial rate of cleavage by recombinant protease was 0 µM/h.
B2: the initial rate of cleavage by recombinant protease was 11.8 µM/h.
Still for that read-out and setting: the figure for B3 is 1.8 µM/h.

Source of the values: patent US20230144608.
